{"source": "the DeepSol protein solubility set"}
{"assay": "soluble on expression in E. coli; label from the status in PepcDB or PDB records"}
{"sequence": "MSLNPANLPFDSDTMLQGLRAWVECESPTWDTAAVERMLDLAAREMAIMGATIERIAGRQGFAGCVRARFPHPKQGEPGILIAGHLDTVHPVGTLSKLPFRREGNKAFGPGIFDMKGGNYLTLEAIKQLARASFTTPLPITVLFTPDEEVGTPSTRDIIEAEAARNKYVLVPEPGRPDNGVVTGRYAIARFNLEAIGKPSHAGATLSSGRSAIREMAKQILAIDAMTTEDCTFSVGIVHGGQWVNCVATTCTGEALSMAKRQADLDRGVDRMLALSGSSSDVTFKVTRGVTRPVWEPDSGTMALYEKARAVASQLGVSLPHGSAGGGSDGNFTGAMGIPTLDGLGVRGADAHTLNEHIEVDSLAERGRLMAGLLATLEEGHHHHHH", "soluble on expression in E. coli": "not soluble"}
{"sequence": "MSLNPFGNALIPDMIADASIQEINGVFYCYATTDGYGQGLKTSGPPVVWKSKDFVHWSFDGTYFPSAAKEKYWAPSKAIFANGKYYIYPTINGYMYPAVADKPEGPFKLARGKDEFYKPFTPSTLLQSKNPGGIDAEIFVDDDGQAYVFWGRRHVAKLNEDMITVDSVVQVISTPRKEYSEGPIFFKRKGIYYYLYTIGGDEKYQYAYVMSRVSPMGPFEAPEQDIISTTNYERGIFGPGHGCVFHPEGTDNYYFAYLEFGRRSTNRQTYVNQLKFNEDGTIRPVELTMDGVGALKKVKSDKKMKIDTVYASSIEVPLKIEPMKDPTCLRTEYFVPSFAVDGANGSRWMAAAEDSINPWIVADLGTVKKVRRSEIYFVRPTAGHAYVIEASMDGKVWQEFAVHQDRKMCSPHTDVLNKRFRYLRIKILKGVPGIWEWNIYEGHHHHHH", "soluble on expression in E. coli": "not soluble"}
{"sequence": "MSLNQKDPVTDDITGGWYEQDIRQLAARGIMQGEGNGKYFPERLVTRAEFATLITRALQLPSGNAKFTDLEQVHPSLRDGINRAASAGIIRGRGDNTFDPNTTITREEAVIMIDRSLKHAGIFAKQVELPFVDQNLIYAKQEVQRVYGFGIVKGNEFNQFVPKGPSQRAHAAAFINRMLSVIEAEGHHHHHH", "soluble on expression in E. coli": "soluble"}
{"sequence": "MSLNQTDLSASSTSSTSRPLVAVTGADGFIGSHLTEDLVRAGYRVRAMAIYNSQGSYGWLDTVPGEVMEHVEVQLGDVRDAGSVRALMRDVQTVYHLAALIAIPYSYVAPRSYVETNITGTLNVLEAARDLGTGRVIHTSTSEVYGTARSVPIHESHPLQGQSPYSATKIGADKLAESYFLSFGLPVVTLRPFNTYGPRQSARAVIPTIISQLAAGRTEIKLGDLRPTRDFNYVADTARAFRAVGEAGPEVLGRTLNAGSGREISVGDTVKLIAQVMGKDVEVKQEDERLRPEGSEVMRLLADHRELQTLTGWQPQVTLEEGLKRTAEWFTDAGNLARYRVDQYTEGHHHHHH", "soluble on expression in E. coli": "soluble"}
{"sequence": "MSLNQTFDKENLESKNTQNLQKSKNPTSQLSKTILKEEFNFLPNDVEINWKGRVLVIGDIHGDLKSLITSLFLSGVINSNLDWIAKNTLLIQLGDVVDRGSHALQIYKLFNKLKSQAPSLGSKFVGLLGNHEVMNLCGQLHYVTDEDFQTYGGRDNRTFEWSKEGFVGKYLRTMKLAIRVNDSLYVHAGLLPKYAKLGLDKLDKLSNDLLEGDFCDFYSSLFFVEDGPLWTRDISLGEEEKACKLVDETLQILGLSRMVVGHTIQHDNRINIKCDNKLILADTGFSEAIYGKPCMLEILYHNDNPDPSNYKSFHPYSEGHHHHHH", "soluble on expression in E. coli": "not soluble"}
{"sequence": "MSLNRFRKWLYKPKRSDPQLLARFYYADEELNQVAAELDSLDGRKDPQRCTLLVSQFRSCQDNVLNIINQIMDECIPQDRAPRDFCVKFPEEIRHDNLAGQLWFGAECLAAGSIIMNRELESMAMRPLAKELTRSLEDVRGALRDQALRDLNTYTEKMREALRHFDVLFAEFELSYVSAMVPVKSPREYYVQQEVIVLFCETVERALDFGYLTQDMIDDYEPALMFSIPRLAIVCGLVVYADGPLNLDRKVEDMSELFRPFHTLLRKIRDLLQTLTEEELHTLERNLCISQDVEFPIRADEGHHHHHH", "soluble on expression in E. coli": "not soluble"}
{"sequence": "MSLNSKKETINIGCSLPLTGEGANYGRSVKEGVDLAIEEINQSEMFDLPLKVIYEDDKMDPREGVNAINKLITADNVPIIIGPFGSSITLAVAPIANKNKVVLLGASATADNIKDAGDYIFRITPPNSKQGNDVASFCFNSLNSKKAAIIYQTNDYGTTLKTAFESEYLKLGGEVLIVEGVDLGNKDFKTQILKIKSKQVDVVFFPLHVAESGNFLKQSKELGLNVKFISCDGAMVDDLLKLAGNAAEGTYYTSLALAYGMNDSLINSFNTNFKKKYNKEPDVYAAYYYEVTYILAHALKKANGNIGQIKEILYSINGENAYNGITGLTSFDTYGEVDKSFSIYVVSNNKFSLFKEGHHHHHH", "soluble on expression in E. coli": "soluble"}
{"sequence": "MSLNSSFFKMMEKRSYNRFNQEQKAAITYDMKKHLRIIAGAGSGKTQTICAKAVYLMTQKQVDEERILMITFTRNAANELKKRVDNFSQRKTAVHIGTFHSIFFRIYNEICRKFPEVAMQGIQGDFSKDTAQKVNAVLQQLIRKYNLYIFDQYGEKTIASRLDYWQNMNLSVEEMVQLVKEKYDSIDKNARQPISERLYGLLTELQEQKRSQQLLEFNDVLQNLKSALENEEIQHYIGQKYDYLFIDEFQDTNPLQWEIVKRMTKENRIKLIVVGDDDQSIYGFRGSEPAYIKNFEKEYPTKTLFLLTNYRSRAAIVQGANRLISYNKNDRIPKAMIPAQKEAGVMEAYLFSDTKAESQWLIKQIQTFIQKNGKYKESIILYRSASQTQQLVQSLLKTNIPFVLEADSPYEGIFGIKSFQHFYQKIVHWQTALNLQKKNQAYQQLLRQLMADCYLKKSECDQYFSPKYQNIAVADYILSISPNLKSKSAEIREFEEALRKTDQHQEIYSLVQSYLHLPRIAKEIDQSDQEWIREEVKQHATFRRLQALSQETQATAKELKTRLIAYRQGKLDALCIQSIHKSKGLSYRNVFLIGCNEGSLPYNGATEKKVIDFNEIKAEPVTTIEEERRLFYVAMTRARNRLYLCVPQMKNSRKLKVSRFIKETGSRVKKGEGHHHHHH", "soluble on expression in E. coli": "soluble"}
{"sequence": "MSLNSTQMNKQVIDKYTQRHELYLEQLLNEIIIPAPQIRSALHYALFSGGKRIRPILVYLAGDLIDVDQGVLDIIAAALELTHCYSLIHDDLPAMDNDDLRRGKPSCHKAFDEATAILVGDGMQALAIEVLLMRLSPLLPAAQVVAITQVLVNASGISGMVSGQSLDLSELAKSSVTEEQLREIHLLKTGKLILACFEMVLAAQHEVSEQIKSALRTYGKHIGLVFQMQDDYLDLYAPTQILGKGRSSDQANQKTTFATLFNKQQLEEEIAVHYQIAMDSLRLFGSKAAALIELTKQLQNRSNLSEGHHHHHH", "soluble on expression in E. coli": "soluble"}
{"sequence": "MSLNTFWKSFPDVERSLTETCELIEQTLHTRNEDIEEALVTLARSGGKLLRPAFFFLFAQLGDEEKQEKQQLLKIAASLEILHMATLIHDDIIDDSPLRRGAVTIQSQYGKDVAVYTGDLLFTEFFTLIADAMNGSEFMKINAQGMKRLLLGELDQMSHRFDRRMSIPAYLRSVNGKTAELFSLSCLEGAYFGHSSKEVQRLAKRIGRHIGIAFQVYDDILDYTADTETLKKPALEDLSQGVYTLPLLFAYQAAPDVFSPYLDKGRAITLEEAAEVAALVNDYHGVTEAQAFAKKVTNKAITDIQQLPDGTAKETLLSLTELLLHRSFEGHHHHHH", "soluble on expression in E. coli": "soluble"}
{"sequence": "MSLNTLNQDIAFKIFTMFYKVCYGKKKHTYTSFFEKFQICTYNDILLLCDEVAKLFKMENSLENVTLPCKVFGDVHGNLFDLLDFFNLYNWPMHNNKVFLGNLINRGNYSLEVICLLFSLKILFPKHIYLLRGNHEDRLFNYIYGFYKDIEIKMKTNMEYMGIINYQEQVISAHSYELFNRINDVFEFFPLCVLLDKNILCIHGGIGDSVMTISDYQHIRKPILIPQNVDRYSNNKSEHVKKIIIDTLWSDPINYNDELDLQLLKNSSTYDIIPSRRGNITFKFGKHRLNDFLKNNQLKLIIRGHECVQEGYKYSYKRKLLTLFSAKNYCNKYNNNASNAFIVRKNKNIIIFNQILKYQHNCEGHHHHHH", "soluble on expression in E. coli": "not soluble"}
{"sequence": "MSLNTPVEFNLPDSIELEREEVEEDLLTSGDEILLSYSSYIPPKLHSMTSHLQLRVDFFVNLLQFTRANFIYKVSPQVKLKLLESYEILNCSLSLSSYLSSDTDLTTQWHRVLLSEEVTEEELMLHQLKRFPELFGKFLAEIDEPLRSSSDIKFKVAAADLVNCVIYHSCLERGESEYRCNQLNLDLTEVGDDLPWFINFSIPDSLNKILLHLFYSFEDGNVPDEYHDKLLEIIKSLYYMCKQSDVWYAVKGSNAYEAGYQGFNLNSTLSNHLTWIQILLKIGRSVDALNIADFYHDLSGLVETLSSFDYEKAHPLYEEYFTKYGYQFSKTLFTTVIEQGKINDLFSRFPSHHDDLVRFFDEYPQYGHVSWIGNIFDQQYNAAAEVLVSVSSPDAAKKLDLNQLQVRLSIAKLSALAEEPILNMDLLNTIQSGLDLIDSQKKAAELAGEHTSLSKRYLETESHYQSILEKLKTNIVLSEYELVGIYTVLDDVTAFAKALHFLSLIKTIPEDSRQFLVSMIWRKCILFNDWNHTSDDLSTALYATLLAFFKEEYYRAGIPLPHVPKLTAPISKDTLSEQLFAGVECGNLLLDGAEADTSALSAVQTDMESRIRFLIGSAHSEAGASCVVNYETNTVDEGHHHHHH", "soluble on expression in E. coli": "soluble"}
{"sequence": "MSLNVSHFFPETFVSLVKDMLTKTDGSTTKAIETLIGGKAEIEVFQQNNIDYDKLSPEEARLFQRDDDILFRTSSLKTGDDYLSYNYVYVKTNLLPPAIKQDLQEERLPIGKIIAELESRREIFSTGDCLGKHFTQLVPVSADRTYAFKKYQIISGRQCMFYVCELFDLEKICKLTAGEGHHHHHH", "soluble on expression in E. coli": "not soluble"}
{"sequence": "MSLPDEQGRRTVTLETAEEALLKRAVVYDHDGDEHYHVASALIKSIRGSDPDAALYWLARMLYAGEDPRFIARRLVISAAEDIGLADPQALVIAQAAADAVSFIGMPEGRIPLAEAVVYLACAPKSNSAYLAIDRALAVVEREKTPPVPNHLKDTGYGSDQRLGYGKGYQYPHDFPGAWVEQRYLPEGVDGPFWEPKGYGREAELARLLRERRGREGHHHHHH", "soluble on expression in E. coli": "soluble"}
{"sequence": "MSLPPCPQCASEYTYEDGGQYICPECAHEWNETESAADLAAQVRDANGAVLQNGDTVILIKDLKVKGSSMVIKQGTKVKGIRLQEGDHNIGCKIDGSAMNLKSEFVKKA", "soluble on expression in E. coli": "not soluble"}
{"sequence": "MSLPTNPFISLFGRSPIGPMQQHIAKAHECAAGLLPFFRAVIAEDWAQVEQVQQDMVRLEQEADRLKKHVRMHLPKSLFLPVPRSDLLELLSVQDKVANRAKDIAGLMLGRRMRIPLPLQGQMLAYVQRSVDASAQALRVVNELNELLETGFGGRETSLVESMVEELEAIENDTDRIQVEVRRELFRLESELPPVDVMFLYQIIEWIGDVADRAQRVGNRLEQLLAREGHHHHHH", "soluble on expression in E. coli": "soluble"}
{"sequence": "MSLQENPYQLVKDVEGIGFGKADELGSRMGLSGNHPERVKAAILYTLETTCLSEGHTYIETEQLIIDTQSLLNQSAREGQRITEMDAANAIIALGENKDIVIEDGRCYFPSLFYAEQNVAKRVKHIASQTEYENQFPESEFLLALGELEERMDVQYAPSQKEAIQKALSSPMLLLTGGPGTGKTTVIRGIVELYGELHGVSLDPSAYKKDEAFPIVLAAPTGRAAKRMSESTGLPAVTIHRLLGWNGAEGFTHTEDQPIEGKLLIIDEASMLDIWLANHLFKAIPDHIQIIIVGDEDQLPSVGPGQVLRDLLASQVIPTVRLTDIYRQAEGSSIVELAHQMKNGLLPNNLTAPTKDRSFIRCGGSQIKEVVEKVVANALKKGYTAKDIQVLAPMYRGKAGINELNVMLQDILNPPKEKRRELKFGDVVYRTGDKILQLVNQPENNVFNGDIGEITSIFYAKENTEKEDMAVVSFDGNEMTFTKKDFNQFTHAYCCSIHKSQGSEFPIVVLPVVKGYYRMLRRNLLYTAITRAKKFLILCGEEEALEWGVKNNDATVRQTSLKNRLSVQVEEGHHHHHH", "soluble on expression in E. coli": "soluble"}
{"sequence": "MSLQIEFREFNPFDCWIWVEFSTVPAPLEQQYLEELFDSWFFLGKLGGFNAENLQAQEEGLELSYMSYQSAQERSSLAALMHNMGEVEYQGRWARCWFDLGTSDAIALDVLLNALQRLSEEMVGLEQVFVGGENADWPSPGRRSLDFAADEGHHHHHH", "soluble on expression in E. coli": "soluble"}
